Assay results published in the supplement of paper PMC10724198.
± gives the standard deviation of the averaged measurements.

System: Saccharomyces cerevisiae
Assay: protein stability index of tFT-peptide fusion (C-terminal peptide) (PSI (0-1 scale)); higher = more stable (slower turnover)
Conditions: genetic background: wild type; temperature: 30 C
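Also: PSI is a weighted mean of sequencing reads over stability bins, variants kept only with over 10 reads, mCherry proximal and sfGFP distal, peptide attached via GGGS linker.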

IRPRRFSPGSTR and QWAAVCAVVGGG are within error of each other in protein stability index: 0.7 ± 0.043 for the first, 0.684 ± 0.055 for the second.

WLGLGGARGCML and GLYAVHEAGWRP are within error of each other in protein stability index: 0.745 ± 0.057 for the first, 0.701 ± 0.089 for the second.

KTKRKKKRRRRE and LSPQKRDSAVTR are within error of each other in protein stability index: 0.705 ± 0.067 for the first, 0.638 ± 0.095 for the second.

RDTFLKMLDERN and AGALFRLPSVFD are within error of each other in protein stability index: 0.732 ± 0.042 for the first, 0.727 ± 0.076 for the second.

KDKSQKKERQKT and AGGDDGAPGTQS are within error of each other in protein stability index: 0.664 ± 0.029 for the first, 0.644 ± 0.015 for the second.

Compared with NEQPSKLLAKEC, IGEAWERGQEAK is lower in protein stability index: 0.866 ± 0.13 for the first, 0.679 ± 0.027 for the second.

Compared with VCVACLRYPTFS, PLASPRIYAQHL is higher in protein stability index: 0.6767 ± 0.0031 for the first, 0.697 ± 0.016 for the second.

Going from ESFGGKAGRDSM to LSALPPRPFSYR, the protein stability index falls from 0.772 ± 0.049 to 0.7053 ± 0.004.

First: LPPPIPPPLSLA
Second: EVKERGRGCREG
The protein stability index of the first is higher: 0.703 ± 0.013 for the first, 0.659 ± 0.03 for the second.

PPPPLAVSPTSP and PPVPDSFAAFLR are within error of each other in protein stability index: 0.716 ± 0.039 for the first, 0.743 ± 0.089 for the second.

First: LYPEELQATAVY
Second: TSIDVLKCVYIQ
The protein stability index of the first is higher: 0.5892 ± 0.00086 for the first, 0.5549 ± 0.0054 for the second.

FFVRGCLCLSDR and DSDIIDYKMEII are within error of each other in protein stability index: 0.693 ± 0.024 for the first, 0.722 ± 0.12 for the second.

GRTDRPTDINSN and AYRITRSRGTEF are within error of each other in protein stability index: 0.677 ± 0.052 for the first, 0.7233 ± 0.0036 for the second.

GEPSYLEYSNLV and REGPSPLDPSRF are within error of each other in protein stability index: 0.765 ± 0.042 for the first, 0.684 ± 0.051 for the second.

First: GPIGVMLCNHHS
Second: EGGWRLVWGRGG
The protein stability index of the first is lower: 0.674 ± 0.015 for the first, 0.7222 ± 0.0024 for the second.

First: FYSPSAPSPFFL
Second: IKVIACSEPIPG
The protein stability index of the first is higher: 0.797 ± 0.052 for the first, 0.592 ± 0.021 for the second.

Going from SDIHSSMTSGSF to LWAQRASPPWYQ, the protein stability index falls from 0.669 ± 0.014 to 0.606 ± 0.047.

Going from SPGSSIFLYFFT to PPTLPFSARSPP, the protein stability index falls from 0.729 ± 0.022 to 0.659 ± 0.036.

First: VVVGRWSVLSSV
Second: DSGYRQWGGTGR
The protein stability index of the first is lower: 0.522 ± 0.017 for the first, 0.714 ± 0.12 for the second.

EYAVLLFPHHPG and PRSPPPPAQPFV are within error of each other in protein stability index: 0.623 ± 0.041 for the first, 0.705 ± 0.042 for the second.

ALRCRPVYHIDG and VPLYVDLYLSGA are within error of each other in protein stability index: 0.658 ± 0.025 for the first, 0.721 ± 0.043 for the second.

First: FSFFPLLARYFF
Second: FWAWEGCTRALM
The protein stability index of the first is lower: 0.499 ± 0.0052 for the first, 0.681 ± 0.07 for the second.

SRPSPAMFLFSP and LPPSLPTHLSHP are within error of each other in protein stability index: 0.737 ± 0.1 for the first, 0.7629 ± 0.0041 for the second.

ARGGIGTCSWGW and RGSQLFWSRGYL are within error of each other in protein stability index: 0.743 ± 0.074 for the first, 0.707 ± 0.035 for the second.

GENTRKNNVVGE and FITRATRESRIG are within error of each other in protein stability index: 0.69 ± 0.017 for the first, 0.694 ± 0.0073 for the second.

First: GVGGGEECHGVG
Second: SLPPLASPPASI
The protein stability index of the first is lower: 0.556 ± 0.018 for the first, 0.72 ± 0.1 for the second.

Compared with WGWGGVRGGMGG, GAPPRPKTGRTF is lower in protein stability index: 0.796 ± 0.08 for the first, 0.7118 ± 0.00075 for the second.

Compared with PPPASPSPSMVF, GPTPAPSASRCF is lower in protein stability index: 0.693 ± 0.024 for the first, 0.6114 ± 0.0058 for the second.

SPPLSLPFFPRP and VPPSYDLPLFPF are within error of each other in protein stability index: 0.641 ± 0.019 for the first, 0.632 ± 0.013 for the second.

Going from SGLRFLSWSVHV to KRYSVPLTTVVD, the protein stability index rises from 0.6114 ± 0.0051 to 0.7165 ± 0.0035.

LVQTREKIELVS and VASGLVLFSGGV are within error of each other in protein stability index: 0.643 ± 0.027 for the first, 0.655 ± 0.0076 for the second.

Compared with RVGRNLRVGGES, KKKRKEEIKKKK is higher in protein stability index: 0.69 ± 0.008 for the first, 0.742 ± 0.012 for the second.

Compared with TLCLPPPVAWQH, SPSGCVGSSAQS is higher in protein stability index: 0.6544 ± 0.0047 for the first, 0.68061 ± 0.00045 for the second.

RDNNSNEMGQAI and FKSCSLHCSRCS are within error of each other in protein stability index: 0.723 ± 0.016 for the first, 0.682 ± 0.12 for the second.

TVRIGKYTGNGV and SFSRFFAIRPSF are within error of each other in protein stability index: 0.738 ± 0.017 for the first, 0.723 ± 0.091 for the second.

LRARMACPLIIS and NTTKLEKRGNIE are within error of each other in protein stability index: 0.663 ± 0.025 for the first, 0.574 ± 0.084 for the second.

KKNKKKKIKMNK and NGTGGASSLAFG are within error of each other in protein stability index: 0.713 ± 0.038 for the first, 0.689 ± 0.052 for the second.

RRTAVEEWGVGG and HRNAFLLPPFPL are within error of each other in protein stability index: 0.672 ± 0.12 for the first, 0.695 ± 0.014 for the second.

Compared with PRSLSLLPPSSP, AGGSVFSVLVDE is lower in protein stability index: 0.734 ± 0.037 for the first, 0.665 ± 0.0081 for the second.

LLPPLPLSPSAP and FRMNEVSWDVVS are within error of each other in protein stability index: 0.685 ± 0.096 for the first, 0.675 ± 0.032 for the second.

Compared with PGRQSPPAPLYR, SVVGGVVVELEG is lower in protein stability index: 0.678 ± 0.0098 for the first, 0.65 ± 0.0096 for the second.

PPLSCFPLSTRL and IKKKKKKTPKNM are within error of each other in protein stability index: 0.683 ± 0.002 for the first, 0.714 ± 0.062 for the second.

Compared with TRDTLNLMYKRL, IVSGVSVHLGVG is lower in protein stability index: 0.703 ± 0.046 for the first, 0.6115 ± 0.0029 for the second.

PQGGREYIYSPQ and VFSGGTVRWVGG are within error of each other in protein stability index: 0.718 ± 0.019 for the first, 0.702 ± 0.023 for the second.

VSGVLPGALFPL and SGGRSPYLLVGL are within error of each other in protein stability index: 0.684 ± 0.053 for the first, 0.725 ± 0.053 for the second.

VGCWATGVGGPS and IWRPGVAQSGLA are within error of each other in protein stability index: 0.706 ± 0.038 for the first, 0.7205 ± 0.0055 for the second.

SKYVVQSENITG and RPTGHAPSRALT are within error of each other in protein stability index: 0.699 ± 0.015 for the first, 0.659 ± 0.062 for the second.

PPVLVPAHHRPD and LSPLSVPAPPSP are within error of each other in protein stability index: 0.651 ± 0.014 for the first, 0.655 ± 0.027 for the second.

VLIEWKGSREKY and APVWSINKTRVM are within error of each other in protein stability index: 0.824 ± 0.21 for the first, 0.671 ± 0.045 for the second.

First: GVGYCCVSGGLG
Second: AFHTLSGFRRVP
The protein stability index of the first is higher: 0.722 ± 0.011 for the first, 0.673 ± 0.019 for the second.

DRRKRMLLLEHP gave a protein stability index of 0.76 ± 0.054.
